We go through seven molecules from patent publication US20250134988A1 (WISTAR INSTITUTE OF ANATOMY AND BIOLOGY, published 2025).

Substitutions are numbered along the chain they refer to. Where two headings read alike, the source gives them in different places.

Test [1] deals with T1, CoV2_5P prefusion-stabilized spike protein (SARS-CoV-2, UniProt P0DTC2 14-1208).
T1 construct: also called 5P trimer; wildtype 5P
Description: ELISA.

A further test has as its target CoV2_5P_HKU1FP (SARS-CoV-2 spike with HKU1 fusion …, UniProt P0DTC2 14-1208). Kind of test: ELISA AUC on 5P spikes with varying fusion peptides. For orientation: In an ELISA, binding on a coated surface is turned into a signal by an enzyme label.
Test [2] addresses T1, CoV2_5P prefusion-stabilized spike …. Description: ELISA, AUC.
Test [3] concerns the target T2, CoV2_5P_229EFP (SARS-CoV-2 spike with 229E fusion …, UniProt P0DTC2 14-1208). Description: ELISA, AUC.
Test [4] concerns the target T3, CoV2_5P_MERSFP (SARS-CoV-2 spike with MERS fusion …, UniProt P0DTC2 14-1208). Description: ELISA, AUC.
Test [5] concerns the target T4, CoV2_5P_OC43FP (SARS-CoV-2 spike with OC43 fusion …, UniProt P0DTC2 14-1208). Kind of test: ELISA, AUC.
Test [6] addresses T5, CoV2_5P_NL63FP (SARS-CoV-2 spike with NL63 fusion …, UniProt P0DTC2 14-1208). Kind of test: ELISA, AUC.
Test [7] addresses T6, CoV2_5P_NonSFP (SARS-CoV-2, UniProt P0DTC2 14-1208).
T6 construct: also called scrambled fusion peptide spike
Kind of test: ELISA, AUC.

Test [8] deals with T2, CoV2_5P_229EFP. Kind of test: ELISA AUC on 5P spikes with varying fusion peptides.
In test [9] the target is T3, CoV2_5P_MERSFP. The test is described as above.
Test [10] has as its target T2, CoV2_5P_229EFP. Description: ELISA, AUC. This is another data set of the same source.
The target in test [11] is T3, CoV2_5P_MERSFP. Kind of test: ELISA, AUC. This is another data set of the same source.
The target of test [12] is T4, CoV2_5P_OC43FP. Kind of test: ELISA, AUC. The source holds these as a separate data set.
For test [13], the target named is T5, CoV2_5P_NL63FP. Kind of test: ELISA, AUC. This is another data set of the same source.
Test [14] has as its target T6, CoV2_5P_NonSFP. Kind of test: ELISA, AUC. This is another data set of the same source.
In another test the target is T7, off-target V5 peptide.
T7 construct: also called V5 tag
T7 peptide: GKPIPNPLLGLDST
Description: ELISA on fusion peptides.

Test [15] has as its target T1, CoV2_5P prefusion-stabilized spike …. Description: ELISA, AUC. The source holds these as a separate data set.

B1: C668 (antibody, V domains shown)
VH: EVKLVESGGGLVKPGGSLKLSCLVSGITFSNDAMSWVRQTPEKRLEWVASISSGGRNYYPDSVKGRFTISRDNARNILYLQMSSLRSEDTAMYFCAREGISVWAMDYWGQGTSVTVSS
VL: DIVMTQAAFSNPVTLGTSASISCRSSKSLLHSNGITYLYWYLQRPGQSPQLLIYRMSNLASGVPDRFSSSGSGTDFTLRISRVEAEDVGVYYCAQNLELPPTFGGGTKLEIK
notes: also called lineage HV5-6-5/KV2-109 antibody C668
As usually defined, the EC50 (read off the curve) is the concentration giving half of the maximal effect. Regarding B1, the “EC50 (read off the curve)” value in [1] is ~0.2 µg/mL.

B2: C1766 (antibody, V domains shown)
VH: B1 VH with L23V, V24A, I27F, N57K, S62N, F94Y, S101Y
VL: B1 VL with K27E, R44K
Take B2: the binding result (with CoV2_5P_HKU1FP; in test [2]; with CoV2_5P_229EFP [3]; with CoV2_5P_MERSFP [4]; in the test with CoV2_5P_OC43FP [5]; with CoV2_5P_NL63FP [6]) was “binds” in each case. Besides, the binding result with CoV2_5P_NonSFP [7] is given as “no binding”.

B3: C862 (antibody, V domains shown)
VH: EVKLVESGGGLVKPGGSLKLSCAASGITFSSSAMSWVRQTPEKRLEWVASISSGGHTYYLDSMKGRFTISRDNARNILYLQMGSLRSEDTAVYYCAREGIYVWAMDYWGQGTSVTVSS
VL: B1 VL with H31Q, R44K, S69G, V90I
Consider B3, for which the binding result (with CoV2_5P_229EFP [8]; with CoV2_5P_MERSFP [9]; with CoV2_5P_HKU1FP; in [2]; with CoV2_5P_OC43FP [5]; with CoV2_5P_NL63FP [6]) was “binds” each time. Further, the binding result with CoV2_5P_NonSFP [7] was “no binding”.

B4: C2691 (antibody, V domains shown)
VH: QVQLQQSGPELVRPGESVKISCKGSGYTFTDYAMHWVKQSHAKSLEWIGIISFYYDNTKYNQNFKGKATMTVDKSSSTAYMELARLTSEDSAIYFCASQGIHYYGSFAYWGQGTLVTVSA
VL: DIVMTQSQKFMSTSVGDRVSVSCKASQNVGTNLGWYQQKPGQSPKALIYSASYRYSGVPDRFTGSGSGTDFTLTISNVQSEDLAEYFCQQYNSSPLTFGAGTKLELK
notes: also called lineage HV1-67/KV6-15 antibody C2691
As to B4, the binding result is recorded as “binds” with CoV2_5P_HKU1FP; “binds” in the test with CoV2_5P_229EFP [10]; “binds” with CoV2_5P_MERSFP [11]; “binds” with CoV2_5P_OC43FP [12]; “binds” in the test with CoV2_5P_NL63FP [13]; “no binding” with CoV2_5P_NonSFP [14]. Moreover, the binding result in [1] is reported as “binds”; in the test with off-target V5 peptide, “no binding (tested: dilution 0.05 (no unit))”.

B5: C2891 (antibody, V domains shown)
VH: B4 VH with E10A, H41R, I51F, K59N, N61T, N63K, F95Y
VL: B4 VL with S22T, G30A, A46T, Q89H, S93G, S94Y
Consider B5, for which the binding result (in [15]; with CoV2_5P_229EFP [10]; with CoV2_5P_MERSFP [11]; with CoV2_5P_OC43FP [12]; with CoV2_5P_NL63FP [13]; with CoV2_5P_NonSFP [14]) was “no binding” each time.

B6: C2866 (antibody, V domains shown)
VH: B4 VH with I51F
VL: B4 VL with S22T, L33V, K45Q, S94Y
notes: Lineage HV1-67/KV6-15
With B6, in the test with CoV2_5P_NonSFP [14], the binding result was “no binding”.

B7: C2503 (antibody, V domains shown)
VH: B4 VH with A42S
VL: B4 VL with S22T, L33V, P44H, E85D, S93N, S94Y
notes: Lineage HV1-67/KV6-15
B7: in the test with CoV2_5P_NonSFP [14], the binding result is “no binding”.
